Patent publication US20070010433A1, “Use of compounds capable of inhibiting the proteolytic processing of semaphorins for prevention, treatment, diagnosis and prognosis of an invasive disease” (SEMA APS, priority 2002, published 2007)

Legend:
PC12E2 cells = experiment: Neurite outgrowth from PC12E2 cells; assay type: cell-based; details: for stimulatory effect on neurite outgrowth: chromatographic fractions of COS-7 conditioned medium, 48 h, compared to negative control (conditioned medium from COS-7 cells without Sema3E proteins)
Description: Conditioned medium from COS-7 cells stably transfected with full-length Sema3E was collected and fractionated using heparin-sepharose affinity chromatography and consequent size-exlusion fractionation. Fractions containing different isoforms of Sema3E were collected and tested for neuritogenic activity.
PC12E2 cells were plated on poly-L-lysine coated 48-well plates (Costar) (5,000 cells/well) and grown overnight in DME/F12 medium supplemented with 5% foetal calf serum (FCS) and 10% horse serum (HS) at 37 C°, 5% CO2. The chromatographic fractions were dialyzed against DME/F12 medium without serum, protein concentration was adjusted to 10 μg/ml, and diluted 1:1 in conditioned medium collected from non-transfected COS-7 cells grown for 72 h in serum free DME/F12 medium. PC12E2 cells were incubated with samples of different Sema3E fractions for 48 h, afterwards cells were fixed with 11% glutaraldehyde in PBS, washed in PBS and stained with 0.1% crystal violet in 20% methanol, and neurite outgrowth was quantified. […] A neurite outgrowth index was calculated in each experiment dividing the percentage of neurite outgrowth index in the test sample by the percentage of neurite outgrowth index in response to conditioned medium from COS7 cells without Sema3E proteins (negative control). Other controls were: nerve growth factor (NGF), tested at concentration 500 ng/ml (positive control), and non-fractionated conditioned medium from COS-7 cells expressing full-length Sema3E, tested at concentration 50 μg total protein/mi. Activity was defined as the index divided by 2.
The truncated p61 isoform of Sema3E was further expressed as recombinant protein ([…]) in Pichia pastoris as described above, purified using Ni2+ affinity chromatography and tested in a neurite outgrowth assay described above. […] NGF at (positive control, 125 ng/ml) stimulated neurite outgrowth up to 40%.

SVEC4-10 cells = experiment: Endothelial cell motility in blindwell chambers (SVEC4-10); assay type: cell-based, mouse; details: for cell-motility-stimulating activity of purified Sema3E isoform fractions: fractions from heparin-sepharose and size-exclusion chromatography of COS-7 medium
Description: 200.000 endothelial mouse lymph nodes SVEC4-10 cells were suspended either in serum free DME/F12 (1:1) medium containing 25 mM Hepes pH 7.4, 0.1% BSA and D-glucose, or conditioned medium collected from cells expressing different Sema3E constructs and were loaded in the top compartments of blindwell chambers. The cells were left to adhere to fibronectin-coated polycarbonate filters within 3 h after seeding, and allowed to migrate through the pores of the filters in the next 3-6 h. Conditioned media from Sema3E or mock transfected 168FARN cells and COS-7 cells transfected with a pcDNA3.1: LacZ were used to examine the effect of the presence of Sema3E in the medium on endothelial cell motility. Migration of SVEC4-10 cells was evaluated after 5 h exposure to the conditioned media with or without Sema3E.
The full-length Sema3E expressed in cells can give a raise to several naturally occurring isoforms of Sema3E, such as for example the truncated p61-Sema3E, a full-length p87-Sema3E, or a dimer p87:p87-Sema3E. The effect of different isoforms of Sema3E on cell motility was studied by using the isoforms purified from conditioned medium collected from tranfected COS-7 cells in the assay described above. The proteins were purified by heparin-sepharose affinity chromatography with following size-exclusion chromatography. All fractions collected from the size-exclusion column were tested for the presence of cell-motility-stimulating activity.

[1] = system: 168FARN mouse tumor cells colonising the lungs; experiment: Experimental lung metastasis assay with transfected 168FARN cells; assay type: in vivo, Balb/c mice
Description: Non-metastatic 168FARN mouse tumor cells were stably transfected with the pcDNA3.1(−)/zeo^R vector encoding a wild-type Sema3E, or mock transfected with the empty vector as described above. Two clones expressing secreted Sema3E, 168FARN: 2s and 168FARN: 14, and a mock transfected clone, 168FARN: 16 were tested for their ability to colonise the lungs in the experimental metastasis assay as described previously (Christensen et al, 1998, Cancer Res 58:1238-44). Briefly, 10^5 cells were injected in the tail vein of female Balb/c mice (age 8-9 weeks). 4 weeks later the lungs were examined for tumor growth.
168FARN cells were stably transfected with constructs encoding 1-560 amino acid fragment of the sequence Sema3E, which corresponds to 61 kDa fragment of Sema3E (p61-Sema3E), a full-length Sema3E mutated on KRRFRR site (Sema3E(−) (+)myc), and a wild-type full-length Sema3E as described above, and stable clones expressing the proteins were injected to mice to induce the experimental metastasis. 10^5 cells of each clone expressing different constructs were injected into the tail vein of female Balb/c mice. After 24 days the lungs were excised, weighted and scored for the presence of visible lung tumors. The p61-Sema3E clones (two groups: clone#1, n=8; clone#5, n=6) were highly aggressive compared to a control group (injected with the cells expressing a secreted alkaline phosphatase (AP)), showing an increase in overall lung weight at about 300%.

[2] = system: SVEC4-10 endothelial cells; experiment: 3D co-culture of SVEC4-10 and 168FARN aggregates in matrigel; assay type: cell-based, mouse; details: co-culture with transfected 168FARN aggregates 3-5 mm apart, 7 days
Description: 100,000 cells in 10 μl were aggregated by incubation in a hanging drop at 37° C. for 4 h. The aggregates were moved onto a layer of solidified ECM gel (matrigel) so, that SVEC4-10 aggregates were placed 3-5 mm apart from the aggregates of 168FARN:AP (clone#3, control clone expressing AP), or 168FARN:p61-Sema3E (clone#5, expressing the non-tagged p61-sema3E isoform), or 168FARN:AP-p61-Sema3E (done#5, expressing the AP-tagged p61 isoform). Another layer of matrigel was added on the top of the aggregates. After 7 days of incubation aggregates were examined for invasive growth.

NGF: nerve growth factor, positive control [reference compound]
stimulation of neurite outgrowth (PC12E2 cells; positive control, 125 ng/ml): up to 40%

heparin [reference compound]
response of SVEC4-10 cells to p61-Sema3E-MH in presence of soluble heparin (SVEC4-10 cells; heparin in the medium at 1-10 μg/ml): decreased the response of SVEC4-10 cells to the p61 -Sema3E-MH to the basal level

B1: p87:p87-Sema3E dimer: dimer of full-length p87-Sema3E purified from medium of transfected COS-7 cells (protein, UniProt O15041 1-775, looked up)
chain: MASAGHIITLLLWGYLLELWTGGHTADTTHPRLRLSHKELLNLNRTSIFHSPFGFLDLHTMLLDEYQERLFVGGRDLVYSLSLERISDGYKEIHWPSTALKMEECIMKGKDAGECANYVRVLHHYNRTHLLTCGTGAFDPVCAFIRVGYHLEDPLFHLESPRSERGRGRCPFDPSSSFISTLIGSELFAGLYSDYWSRDAAIFRSMGRLAHIRTEHDDERLLKEPKFVGSYMIPDNEDRDDNKVYFFFTEKALEAENNAHAIYTRVGRLCVNDVGGQRILVNKWSTFLKARLVCSVPGMNGIDTYFDELEDVFLLPTRDHKNPVIFGLFNTTSNIFRGHAICVYHMSSIRAAFNGPYAHKEGPEYHWSVYEGKVPYPRPGSCASKVNGGRYGTTKDYPDDAIRFARSHPLMYQAIKPAHKKPILVKTDGKYNLKQIAVDRVEAEDGQYDVLFIGTDNGIVLKVITIYNQEMESMEEVILEELQIFKDPVPIISMEISSKRQQLYIGSASAVAQVRFHHCDMYGSACADCCLARDPYCAWDGISCSRYYPTGTHAKRRFRRQDVRHGNAAQQCFGQQFVGDALDKTEEHLAYGIENNSTLLECTPRSLQAKVIWFVQKGRETRKEEVKTDDRVVKMDLGLLFLRLHKSDAGTYFCQTVEHSFVHTVRKITLEVVEEEKVEDMFNKDDEEDRHHRMPCPAQSSISQGAKPWYKEFLQLIGYSNFQRVEEYCEKVWCTDRKRKKLKMSPSKWKYANPQEKKLRSKPEHYRLPRHTLDS
modifications: full-length dimer
notes: dimer of full-length p87-Sema3E purified from medium of transfected COS-7 cells
stimulatory effect on neurite outgrowth (PC12E2 cells): 28-35% | cell-motility-stimulating activity of purified Sema3E isoform fractions (SVEC4-10 cells): failes to stimulate motility

B2: p61-Sema3E: 1-560 amino acid fragment of Sema3E, 61 kDa truncated isoform from furin cleavage (SEQ ID NO: 3) (protein, listed as Mus sp.)
chain: MAPAGHILTLLLWGHLLELWTPGHSANPSYPRLRLSHKELLELNRTSIFQSPLGFLDLHTMLLDEYQERLFVGGRDLVYSLNLERVSDGYREIYWPSTAVKVEECIMKGKDANECANYIRVLHHYNRTHLLTCATGAFDPHCAFIRVGHHSEEPLFHLESHRSERGRGRCPFDPNSSFVSTLVGNELFAGLYSDYWGRDSAIFRSMGKLGHIRTEHDDERLLKEPKFVGSYMIPDNEDRDDNKMYFFFTEKALEAENNAHTIYTRVGRLCVNDMGGQRILVNKWSTFLKARLVCSVPGMNGIDTYFDELEDVFLLPTRDPKNPVIFGLFNTTSNIFRGHAVCVYHMSSIREAFNGPYAHKEGPEYHWSLYEGKVPYPRPGSCASKVNGGKYGTTKDYPDDAIRFARIDPLMYQPIKPVHKKPILVKTDGKYNLRQLAVDRVEAEDGQYDVLFIGTDTGIVLKVITIYNQETEWMEEVILEELQIFKDPAPIISMEISSKRQQLYIGSASAVAQVRFHHCDMYGSACADCCLARDPYCAWDGISCSRYYPTGAHAKRRFRR
stimulatory effect on neurite outgrowth (PC12E2 cells): 24-39% | increase in overall lung weight ([1]; 168FARN clones #1 and #5, 10^5 cells tail vein, 24 days, versus control cells expressing secreted alkaline phosphatase (AP)): about 300% | lung weight versus groups with mutated Sema3E(−)(+)myc ([1]; 168FARN clones, 24 days, compared to Sema3E(−)(+)myc clones #14 and #6): double increase | invasive growth of SVEC4-10 endothelial cells [2]: invasion of SVEC4-10 endothelial cells was observed | cell-motility-stimulating activity of purified Sema3E isoform fractions (SVEC4-10 cells): attractive for SVEC4-10 cells

B3: Sema3E: wild-type full-length mouse Sema3E (SEQ ID NO: 1) expressed in 168FARN cells (protein, listed as Mus sp.)
chain: MAPAGHILTLLLWGHLLELWTPGHSANPSYPRLRLSHKELLELNRTSIFQSPLGFLDLHTMLLDEYQERLFVGGRDLVYSLNLERVSDGYREIYWPSTAVKVEECIMKGKDANECANYIRVLHHYNRTHLLTCATGAFDPHCAFIRVGHHSEEPLFHLESHRSERGRGRCPFDPNSSFVSTLVGNELFAGLYSDYWGRDSAIFRSMGKLGHIRTEHDDERLLKEPKFVGSYMIPDNEDRDDNKMYFFFTEKALEAENNAHTIYTRVGRLCVNDMGGQRILVNKWSTFLKARLVCSVPGMNGIDTYFDELEDVFLLPTRDPKNPVIFGLFNTTSNIFRGHAVCVYHMSSIREAFNGPYAHKEGPEYHWSLYEGKVPYPRPGSCASKVNGGKYGTTKDYPDDAIRFARIDPLMYQPIKPVHKKPILVKTDGKYNLRQLAVDRVEAEDGQYDVLFIGTDTGIVLKVITIYNQETEWMEEVILEELQIFKDPAPIISMEISSKRQQLYIGSASAVAQVRFHHCDMYGSACADCCLARDPYCAWDGISCSRYYPTGAHAKRRFRRQDVRHGNAAQQCFGQQFVGDALDRTEERLAYGIESNSTLLECTPRSLQAKVIWFYQKGRDVRKEEVKTDDRVVKMDLGLLFLRVRKSDAGTYFCQTVEHNFVHTVRKITLEVVEEHKVEGMFHKDHEEERHHKMPCPPLSGMSQGTKPWYKEFLQLIGYSNFQRVEEYCEKVWCTDKKRKKLKMSPSKWKYANPQEKRLRSKAEHFRLPRHTLLS
increase of overall weight of the lungs ([1]; 10^5 168FARN cells expressing wild-type Sema3E, tail vein, 4 weeks): 300% | lung colonisation / visible lung tumors ([1]; 168FARN clones 2s and 14 expressing secreted Sema3E, 4 weeks, versus parental or mock transfected cells): colonized the lungs and produced large tumors
